From patent US9988429B2, “Glucagon analogues” (Zealand Pharma A/S, priority 2013, dated 2018)
Starred links: 1 amine or outer side, 2 acyl side, 3 side chain; linkers in the order of their positions; H or OH if unused. Non-standard residues stand in square brackets, D forms with d. Residues, ends and D or L forms follow the SMILES beside them. Groups on a side chain read outwards from the residue. *: point of attachment. γGlu = O=C(O)[C@H](CCC(=O)[*:2])N[*:1]; Palmitoyl = CCCCCCCCCCCCCCCC(=O)*; NMeS = CN[C@@H](CO)C(=O)O; Ac4c = NC1(C(=O)O)CCC1; Aib = CC(C)(N)C(=O)O

T1: endogenous GLP-1 receptor of a murine insulinoma cell line (murine, UniProt O35659 22-463)
T1 sequence (looked up): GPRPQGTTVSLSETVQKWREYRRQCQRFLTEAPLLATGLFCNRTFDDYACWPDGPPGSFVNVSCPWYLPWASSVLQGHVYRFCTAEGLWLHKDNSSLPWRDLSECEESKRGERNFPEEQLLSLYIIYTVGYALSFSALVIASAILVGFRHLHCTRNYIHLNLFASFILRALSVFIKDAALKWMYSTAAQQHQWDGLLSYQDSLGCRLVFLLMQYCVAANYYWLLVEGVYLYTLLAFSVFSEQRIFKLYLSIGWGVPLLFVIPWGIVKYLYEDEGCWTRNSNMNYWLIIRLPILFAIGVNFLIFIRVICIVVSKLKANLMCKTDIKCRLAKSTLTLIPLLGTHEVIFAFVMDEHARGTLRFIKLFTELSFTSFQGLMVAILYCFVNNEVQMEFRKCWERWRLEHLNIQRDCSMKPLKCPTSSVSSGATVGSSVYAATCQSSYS

B1: Compound 2: H-H-NMeSer-QGTFTSDYSKYLDS-K(Hexadecanoyl-isoGlu)-AAHDFVEWLLSA-NH2 (peptide)
peptide: H-H[NMeS]QGTFTSDYSKYLDSK([γGlu-Palmitoyl])AAHDFVEWLLSA-NH2
SMILES: CCCCCCCCCCCCCCCC(=O)N[C@@H](CCC(=O)NCCCC[C@H](NC(=O)[C@H](CO)NC(=O)[C@H](CC(=O)O)NC(=O)[C@H](CC(C)C)NC(=O)[C@H](Cc1ccc(O)cc1)NC(=O)[C@H](CCCCN)NC(=O)[C@H](CO)NC(=O)[C@H](Cc1ccc(O)cc1)NC(=O)[C@H](CC(=O)O)NC(=O)[C@H](CO)NC(=O)[C@@H](NC(=O)[C@H](Cc1ccccc1)NC(=O)[C@@H](NC(=O)CNC(=O)[C@H](CCC(N)=O)NC(=O)[C@H](CO)N(C)C(=O)[C@@H](N)Cc1c[nH]cn1)[C@@H](C)O)[C@@H](C)O)C(=O)N[C@@H](C)C(=O)N[C@@H](C)C(=O)N[C@@H](Cc1c[nH]cn1)C(=O)N[C@@H](CC(=O)O)C(=O)N[C@@H](Cc1ccccc1)C(=O)N[C@H](C(=O)N[C@@H](CCC(=O)O)C(=O)N[C@@H](Cc1c[nH]c2ccccc12)C(=O)N[C@@H](CC(C)C)C(=O)N[C@@H](CC(C)C)C(=O)N[C@@H](CO)C(=O)N[C@@H](C)C(N)=O)C(C)C)C(=O)O
B2: Compound 4: H-H-Ac4c-QGTFTSDYSKYLDS-K(Hexadecanoyl-isoGlu)-AAHDFVEWLLSA-NH2 (peptide)
peptide: H-H[Ac4c]QGTFTSDYSKYLDSK([γGlu-Palmitoyl])AAHDFVEWLLSA-NH2
SMILES: CCCCCCCCCCCCCCCC(=O)N[C@@H](CCC(=O)NCCCC[C@H](NC(=O)[C@H](CO)NC(=O)[C@H](CC(=O)O)NC(=O)[C@H](CC(C)C)NC(=O)[C@H](Cc1ccc(O)cc1)NC(=O)[C@H](CCCCN)NC(=O)[C@H](CO)NC(=O)[C@H](Cc1ccc(O)cc1)NC(=O)[C@H](CC(=O)O)NC(=O)[C@H](CO)NC(=O)[C@@H](NC(=O)[C@H](Cc1ccccc1)NC(=O)[C@@H](NC(=O)CNC(=O)[C@H](CCC(N)=O)NC(=O)C1(NC(=O)[C@@H](N)Cc2c[nH]cn2)CCC1)[C@@H](C)O)[C@@H](C)O)C(=O)N[C@@H](C)C(=O)N[C@@H](C)C(=O)N[C@@H](Cc1c[nH]cn1)C(=O)N[C@@H](CC(=O)O)C(=O)N[C@@H](Cc1ccccc1)C(=O)N[C@H](C(=O)N[C@@H](CCC(=O)O)C(=O)N[C@@H](Cc1c[nH]c2ccccc12)C(=O)N[C@@H](CC(C)C)C(=O)N[C@@H](CC(C)C)C(=O)N[C@@H](CO)C(=O)N[C@@H](C)C(N)=O)C(C)C)C(=O)O
B3: Compound 17: H-H-Aib-QGTFTSDYSKYLDE-K(Hexadecanoyl-isoGlu)-AAKDFIEWLEEE-NH2 (peptide)
peptide: H-H[Aib]QGTFTSDYSKYLDEK([γGlu-Palmitoyl])AAKDFIEWLEEE-NH2
SMILES: CCCCCCCCCCCCCCCC(=O)N[C@@H](CCC(=O)NCCCC[C@H](NC(=O)[C@H](CCC(=O)O)NC(=O)[C@H](CC(=O)O)NC(=O)[C@H](CC(C)C)NC(=O)[C@H](Cc1ccc(O)cc1)NC(=O)[C@H](CCCCN)NC(=O)[C@H](CO)NC(=O)[C@H](Cc1ccc(O)cc1)NC(=O)[C@H](CC(=O)O)NC(=O)[C@H](CO)NC(=O)[C@@H](NC(=O)[C@H](Cc1ccccc1)NC(=O)[C@@H](NC(=O)CNC(=O)[C@H](CCC(N)=O)NC(=O)C(C)(C)NC(=O)[C@@H](N)Cc1c[nH]cn1)[C@@H](C)O)[C@@H](C)O)C(=O)N[C@@H](C)C(=O)N[C@@H](C)C(=O)N[C@@H](CCCCN)C(=O)N[C@@H](CC(=O)O)C(=O)N[C@@H](Cc1ccccc1)C(=O)N[C@H](C(=O)N[C@@H](CCC(=O)O)C(=O)N[C@@H](Cc1c[nH]c2ccccc12)C(=O)N[C@@H](CC(C)C)C(=O)N[C@@H](CCC(=O)O)C(=O)N[C@@H](CCC(=O)O)C(=O)N[C@@H](CCC(=O)O)C(N)=O)[C@@H](C)CC)C(=O)O

Experiments:
[1] = biological target: T2, human glucagon receptor (Glucagon-R) (Homo sapiens, UniProt P47871); assay: Glucagon receptor efficacy assay (cAMP AlphaScreen, CHO cells); format: cell-based; details: cAMP formation, CHO cells expressing human Glucagon-R; read-out: EC50 hGCGR CHO-K1
T2 construct: expressed in transfected cells
Protocol: (§1) The mammalian expression vectors encoding the Glucagon-R or the GLP-1-R were transfected into Chinese hamster ovary (CHO) cells by the Attractene method. Stably expressing clones were obtained by Zeocin selection (250 μg/mL) upon limited dilution of cells resistant to the selection pressure. […] One Glucagon-R expressing clone and one GLP-1-R expressing clone were chosen for compound profiling.
(§2) CHO cells expressing the human Glucagon-R, or human GLP-1-R were seeded 24 hours prior to the assay at 30,000 cells per well in 96-well microtiter plates in culture in 100 μl growth medium. On the day of analysis, growth medium was removed and the cells were washed once with 200 μl of assay buffer (Krebs-Ringer-buffer—KRBH). The buffer was removed and the cells were incubated for 15 min at room temperature in 10 μl KRBH (KRBH+10 mM HEPES, 5 mM NaHCO3, 0.1% (V/V) BSA) with 0.1 mM IBMX in deionized water containing increasing concentrations of test peptides. The reaction was stopped by the addition of lysis buffer (0.1% w/v BSA, 5 mM HEPES, 0.3% v/v Tween-20). After cell lysis for 10 min at room temperature, lysates were transferred to 384-well plates and 10 μl of acceptor/donorbead mixture as contained in the AlphaScreen™ cAMP Functional Assay Kit was added. After one hour of incubation at room temperature in the dark, the cAMP content was determined applying the AlphaScreen™ cAMP Functional Assay Kit from Perkin-Elmer according to manufacturer instructions. […] The GLP-1/glucagon ratio is calculated as defined earlier.

[2] = biological target: T3, human glucagon-like peptide 1 receptor (GLP-1R) (Homo sapiens, UniProt P43220); assay: GLP-1 receptor efficacy assay (cAMP AlphaScreen, CHO cells); format: cell-based; details: for Ratio GLP-1/Glucagon: EC50 [GLP-1R] / EC50 [Glucagon-R], human receptors in CHO-K1
T3 construct: expressed in transfected cells
Protocol: as §1, §2

[3] = biological target: human glucagon receptor (Glucagon-R) (human, UniProt P47871 26-477); assay: cell-based or functional assay
[4] = biological target: human glucagon-like peptide 1 receptor (GLP-1R) (human, UniProt P43220 24-463); assay: cell-based or functional assay
[5] = biological target: T1, endogenous GLP-1 receptor of a murine …; assay: cell-based or functional assay
[6] = biological target: endogenous glucagon receptor of primary rat hepatocytes (rat, UniProt P30082 27-485); assay: cell-based or functional assay
Sequence of endogenous glucagon receptor of primary rat hepatocytes (P30082 27-485): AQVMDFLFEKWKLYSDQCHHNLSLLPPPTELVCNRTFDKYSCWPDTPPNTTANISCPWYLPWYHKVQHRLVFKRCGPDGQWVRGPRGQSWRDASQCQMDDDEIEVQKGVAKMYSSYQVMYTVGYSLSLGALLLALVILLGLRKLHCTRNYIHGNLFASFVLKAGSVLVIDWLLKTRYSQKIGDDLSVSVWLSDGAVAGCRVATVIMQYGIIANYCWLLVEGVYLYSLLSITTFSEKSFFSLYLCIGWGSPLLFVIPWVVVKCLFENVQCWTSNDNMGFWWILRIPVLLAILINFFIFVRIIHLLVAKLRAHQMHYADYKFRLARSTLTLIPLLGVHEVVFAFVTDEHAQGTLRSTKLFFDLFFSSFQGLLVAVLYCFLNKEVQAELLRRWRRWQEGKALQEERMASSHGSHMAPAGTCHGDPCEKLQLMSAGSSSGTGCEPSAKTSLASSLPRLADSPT

T3 sequence (P43220 24-463): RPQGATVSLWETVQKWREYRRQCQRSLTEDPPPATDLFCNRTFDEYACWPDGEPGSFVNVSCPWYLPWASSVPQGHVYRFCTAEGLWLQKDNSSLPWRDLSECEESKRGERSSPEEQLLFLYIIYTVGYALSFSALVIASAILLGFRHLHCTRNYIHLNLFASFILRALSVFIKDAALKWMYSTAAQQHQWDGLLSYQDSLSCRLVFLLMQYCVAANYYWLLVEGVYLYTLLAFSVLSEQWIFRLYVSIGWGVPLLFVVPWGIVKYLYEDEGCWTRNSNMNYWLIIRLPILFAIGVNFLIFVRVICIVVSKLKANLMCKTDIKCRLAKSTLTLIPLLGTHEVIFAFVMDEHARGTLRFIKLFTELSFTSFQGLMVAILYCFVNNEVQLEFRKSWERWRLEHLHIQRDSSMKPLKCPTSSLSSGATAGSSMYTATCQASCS
Sequence of human glucagon receptor (Glucagon-R) (human, UniProt P47871 26-477) (P47871 26-477): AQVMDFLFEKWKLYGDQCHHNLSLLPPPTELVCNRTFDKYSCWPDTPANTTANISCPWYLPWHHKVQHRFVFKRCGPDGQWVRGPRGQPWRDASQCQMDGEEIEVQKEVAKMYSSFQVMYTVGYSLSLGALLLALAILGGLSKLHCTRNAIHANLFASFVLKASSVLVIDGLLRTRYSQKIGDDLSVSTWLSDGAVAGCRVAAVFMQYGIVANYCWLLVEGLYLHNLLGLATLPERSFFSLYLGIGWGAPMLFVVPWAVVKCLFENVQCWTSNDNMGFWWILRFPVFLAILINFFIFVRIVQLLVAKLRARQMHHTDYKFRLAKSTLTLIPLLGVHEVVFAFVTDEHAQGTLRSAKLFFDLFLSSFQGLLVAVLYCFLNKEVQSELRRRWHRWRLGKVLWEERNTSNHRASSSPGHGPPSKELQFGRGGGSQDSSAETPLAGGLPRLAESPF
T2 sequence (P47871 26-477): as above

Molecule | EC50 [1] [nM] | Ratio GLP-1/Glucagon [2] | EC50 ([2]; cAMP formation, CHO cells expressing human GLP-1-R, read-out: EC50 hGLP-1R CHO-K1) [nM] | EC50 hGCGR CHO-K1 [nM] (cAMP, AlphaScreen) [3] | EC50 hGLP-1R CHO-K1 [nM] (cAMP, AlphaScreen) [4] | EC50 [nM] (cAMP in murine insulinoma cell line) [5] | EC50 [nM] (inhibition of glycogen synthesis rate in primary rat hepatocytes) [6]
CCCCCCCCCCCCCCCC(=O)N[C@@H](CCC(=O)NCCCC[C@H](NC(=O)[C@H](CO)NC(=O)[C@H](CC(=O)O)NC(=O)[C@H](CC(C)C)NC(=O)[C@H](Cc1ccc(O)cc1)NC(=O)[C@H](CCCCN)NC(=O)[C@H](CO)NC(=O)[C@H](Cc1ccc(O)cc1)NC(=O)[C@H](CC(=O)O)NC(=O)[C@H](CO)NC(=O)[C@@H](NC(=O)[C@H](Cc1ccccc1)NC(=O)[C@@H](NC(=O)CNC(=O)[C@H](CCC(N)=O)NC(=O)C1(NC(=O)[C@@H](N)Cc2c[nH]cn2)CCC1)[C@@H](C)O)[C@@H](C)O)C(=O)N[C@@H](C)C(=O)N[C@@H](C)C(=O)N[C@@H](Cc1c[nH]cn1)C(=O)N[C@@H](CC(=O)O)C(=O)N[C@@H](Cc1ccccc1)C(=O)N[C@H](C(=O)N[C@@H](CCC(=O)O)C(=O)N[C@@H](Cc1c[nH]c2ccccc12)C(=O)N[C@@H](CC(C)C)C(=O)N[C@@H](CC(C)C)C(=O)N[C@@H](CO)C(=O)N[C@@H](C)C(N)=O)C(C)C)C(=O)O [Compound 4] | 0.12 | 2.59 | – | – | – | – | –
CCCCCCCCCCCCCCCC(=O)N[C@@H](CCC(=O)NCCCC[C@H](NC(=O)[C@H](CO)NC(=O)[C@H](CC(=O)O)NC(=O)[C@H](CC(C)C)NC(=O)[C@H](Cc1ccc(O)cc1)NC(=O)[C@H](CCCCN)NC(=O)[C@H](CO)NC(=O)[C@H](Cc1ccc(O)cc1)NC(=O)[C@H](CC(=O)O)NC(=O)[C@H](CO)NC(=O)[C@@H](NC(=O)[C@H](Cc1ccccc1)NC(=O)[C@@H](NC(=O)CNC(=O)[C@H](Cc1c[nH]cn1)NC(=O)[C@H](CO)NC(=O)[C@@H](N)Cc1c[nH]cn1)[C@@H](C)O)[C@@H](C)O)C(=O)N[C@@H](C)C(=O)N[C@@H](C)C(=O)N[C@@H](Cc1c[nH]cn1)C(=O)N[C@@H](CC(=O)O)C(=O)N[C@@H](Cc1ccccc1)C(=O)N[C@H](C(=O)N[C@@H](CCC(=O)O)C(=O)N[C@@H](Cc1c[nH]c2ccccc12)C(=O)N[C@@H](CC(C)C)C(=O)N[C@@H](CC(C)C)C(=O)N[C@@H](CO)C(=O)N[C@@H](C)C(N)=O)C(C)C)C(=O)O [Compound 5] (H-HSHGTFTSDYSKYLDSK([γGlu-Palmitoyl])AAHDFVEWLLSA-NH2) | 0.12 | 2.25 | 0.27 | – | – | – | –
CCCCCCCCCCCCCCCC(=O)N[C@@H](CCC(=O)NCCCC[C@H](NC(=O)[C@H](CCC(=O)O)NC(=O)[C@H](CC(=O)O)NC(=O)[C@H](CC(C)C)NC(=O)[C@H](Cc1ccc(O)cc1)NC(=O)[C@H](CCCCN)NC(=O)[C@H](CO)NC(=O)[C@H](Cc1ccc(O)cc1)NC(=O)[C@H](CC(=O)O)NC(=O)[C@H](CO)NC(=O)[C@@H](NC(=O)[C@H](Cc1ccccc1)NC(=O)[C@@H](NC(=O)CNC(=O)[C@H](Cc1c[nH]cn1)NC(=O)C1(NC(=O)[C@@H](N)Cc2c[nH]cn2)CCC1)[C@@H](C)O)[C@@H](C)O)C(=O)N[C@@H](C)C(=O)N[C@@H](C)C(=O)N[C@@H](CCCCN)C(=O)N[C@@H](CC(=O)O)C(=O)N[C@@H](Cc1ccccc1)C(=O)N[C@H](C(=O)N[C@@H](CCC(=O)O)C(=O)N[C@@H](Cc1c[nH]c2ccccc12)C(=O)N[C@@H](CC(C)C)C(=O)N[C@@H](CCC(=O)O)C(=O)N[C@@H](CO)C(=O)N[C@@H](C)C(N)=O)[C@@H](C)CC)C(=O)O [Compound 15] | 0.1 | – | – | – | – | – | –
B1 | – | – | – | 0.24 | 0.92 | 0.52 | 5.4
B2 | – | – | – | 0.12 | 0.31 | 0.32 | 0.37
B3 | – | – | – | 0.08 | 0.27 | 0.21 | 2.26
